Assay results from publication PMC4238996 (PLoS Neglected Tropical Diseases, 2014).

B1: MBP-tagged MupDivIVA-P (Mup012c residues 1-87, phosphorylated by co-expression with PknQ) (natural protein, M. ulcerans Agy99 (plasmid pMUM001), UniProt Q6MZ92 1-87, looked up)
chain: MSHSELLDPALPKSPFGKQGYRYDDVDVFLRLIADELQGSDLSESDIHSITFRCAAPLTRGYDTESVDRFLDRIAETIARGHGDEGQ
notes: also called phosphorylated MupDivIVA
B2: MBP-tagged MupDivIVA S43/45/49A triple mutant (natural protein)
chain: MSHSELLDPALPKSPFGKQGYRYDDVDVFLRLIADELQGSDLAEADIHAITFRCAAPLTRGYDTESVDRFLDRIAETIARGHGDEGQ

Molecular target: T1, M. tuberculosis Rv0020c (M. tuberculosis H37Rv, UniProt P71590 1-527)
T1 sequence: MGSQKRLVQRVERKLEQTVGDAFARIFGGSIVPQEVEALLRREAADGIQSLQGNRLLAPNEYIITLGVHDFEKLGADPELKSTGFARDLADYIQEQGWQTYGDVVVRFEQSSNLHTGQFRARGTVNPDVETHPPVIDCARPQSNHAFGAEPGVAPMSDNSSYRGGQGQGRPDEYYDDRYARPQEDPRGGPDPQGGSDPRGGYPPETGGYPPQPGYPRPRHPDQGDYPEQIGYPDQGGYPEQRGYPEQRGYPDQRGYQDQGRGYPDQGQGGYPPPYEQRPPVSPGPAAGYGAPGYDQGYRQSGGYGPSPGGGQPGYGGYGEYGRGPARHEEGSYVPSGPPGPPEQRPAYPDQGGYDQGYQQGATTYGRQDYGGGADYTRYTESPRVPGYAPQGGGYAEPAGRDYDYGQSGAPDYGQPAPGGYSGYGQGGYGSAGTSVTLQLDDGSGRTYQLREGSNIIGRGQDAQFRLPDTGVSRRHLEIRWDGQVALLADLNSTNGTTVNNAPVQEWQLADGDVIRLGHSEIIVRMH
Assay: ELISA
Conditions: both partners purified

Binder	binding result
B1	binds
B2	binds
